Data on one substance can be found in patent US20250011422A1.

The target in experiment [1] is human Siglec-6 on the cell surface (U937, MEC1-002, MEC1-hS6, primary CLL cells) (human) (UniProt O43699). As to the kind of experiment: quantitative flow cytometry, primary CLL cells (live, CD20+ CD5+), CLL patient 4705.
The target is the same in experiment [2]. The experiment is described as follows: quantitative flow cytometry, primary CLL cells (live, CD20+ CD5+), CLL patient 2691. (A flow cytometer gives signals particle by particle.)
The target is the same in experiment [3]. The experiment is described as follows: quantitative flow cytometry, primary CLL cells (live, CD20+ CD5+), CLL patient 8242.
Experiment [4] has the same target. The experiment is described as follows: quantitative flow cytometry, primary CLL cells (live, CD20+ CD5+), CLL patient 4973.
Experiment [5] shares this target. As to the kind of experiment: quantitative flow cytometry with bead calibration standard, cell line MEC1-002.
Experiment [6] shares this target. As to the kind of experiment: quantitative flow cytometry, primary CLL cells (live, CD20+ CD5+), CLL patient 11944.
For experiment [7] the target is unchanged. As to the kind of experiment: quantitative flow cytometry, primary CLL cells (live, CD20+ CD5+), CLL patient 3071.

Sequence of human Siglec-6 on the cell surface (U937, MEC1-002, MEC1-hS6, primary CLL cells) (human) (O43699 27-453): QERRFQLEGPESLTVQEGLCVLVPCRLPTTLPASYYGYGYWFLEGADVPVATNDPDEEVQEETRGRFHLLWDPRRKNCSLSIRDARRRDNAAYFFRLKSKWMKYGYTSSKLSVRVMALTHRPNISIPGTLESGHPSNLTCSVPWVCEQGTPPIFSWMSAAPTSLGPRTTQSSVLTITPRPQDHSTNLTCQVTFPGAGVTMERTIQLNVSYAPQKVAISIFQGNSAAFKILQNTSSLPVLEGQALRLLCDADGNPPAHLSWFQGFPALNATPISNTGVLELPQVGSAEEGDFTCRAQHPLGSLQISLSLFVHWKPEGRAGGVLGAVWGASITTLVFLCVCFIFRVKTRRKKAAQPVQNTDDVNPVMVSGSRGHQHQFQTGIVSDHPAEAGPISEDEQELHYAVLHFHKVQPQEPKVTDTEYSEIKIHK

In the case of “commercial mouse anti-human Siglec-6 mAb clone 767329 (R&D Systems) (antibody)”, the Siglec-6 (ABC-isotype) in experiment [1] was 2430 ABC; in experiment [2], 6040 ABC; in experiment [3] it was 843 ABC; in experiment [4] it was 3670 ABC; in experiment [5], 1450 ABC; in experiment [6], 3580 ABC. The same substance returned a Siglec-6 (ABC-isotype) in experiment [7] of 1540 ABC.
